Data taken from patent US9486491 (dated 2016).
Non-standard residues stand in square brackets, D forms with d. No end group written: not given here. Hyp = O=C(O)[C@@H]1C[C@@H](O)CN1

Biological target: DPP-4 (UniProt P27487)
Assay: other, DPP-4 inhibition

Chain of DPP-4 (P27487 29-766): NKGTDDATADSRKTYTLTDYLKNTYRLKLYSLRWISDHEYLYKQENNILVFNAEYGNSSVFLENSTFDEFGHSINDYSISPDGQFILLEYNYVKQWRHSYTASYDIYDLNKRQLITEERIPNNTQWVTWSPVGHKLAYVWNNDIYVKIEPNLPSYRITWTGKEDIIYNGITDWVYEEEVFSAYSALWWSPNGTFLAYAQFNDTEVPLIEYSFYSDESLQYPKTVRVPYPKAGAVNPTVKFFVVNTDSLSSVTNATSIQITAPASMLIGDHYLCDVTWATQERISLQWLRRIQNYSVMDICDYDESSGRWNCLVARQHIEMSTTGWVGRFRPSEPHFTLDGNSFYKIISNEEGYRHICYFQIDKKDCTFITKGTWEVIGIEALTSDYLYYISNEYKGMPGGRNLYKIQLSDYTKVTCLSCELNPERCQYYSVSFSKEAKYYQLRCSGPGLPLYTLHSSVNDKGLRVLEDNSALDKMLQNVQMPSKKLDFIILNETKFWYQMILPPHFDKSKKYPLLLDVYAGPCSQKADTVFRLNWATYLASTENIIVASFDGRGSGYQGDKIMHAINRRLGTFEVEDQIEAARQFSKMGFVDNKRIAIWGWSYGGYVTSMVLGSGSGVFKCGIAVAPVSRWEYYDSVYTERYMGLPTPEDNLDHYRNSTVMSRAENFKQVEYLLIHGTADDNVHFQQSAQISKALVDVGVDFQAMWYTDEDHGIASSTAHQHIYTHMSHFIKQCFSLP

IC50 [µg/mL]	Binder
150	Ile-[Hyp]-Gly [IleHypGly]
390	L[Hyp]GPA [LeuHypGlyProAla]
2450	Ala-[Hyp]-Gly [AlaHypGly]
14	LPG [LeuProGly]
71	GPA [GlyProAla]
142	GPS [GlyProSer]
93	GPQ [GlyProGln]
39	Leu-[Hyp]-Gly [LeuHypGly]
8	APG [AlaProGly]
5	GPIGPV [GlyProIleGlyProVal]
100	GPV [GlyProVal]
